B1: O-acetylserine sulfhydrylase isozyme A (CysK) from E. coli (enzyme)
chain: KIFEDNSLTIGHTPLVRLNRIGNGRILAKVESRNPSFSVKCRIGANMIWDAEKRGVLKPGVELVEPTSGNTGIALAYVAAARGYKLTLTMPETMSIERRKLLKALGANLVLTEGAKGMKGAIQKAEEIVASNPEKYLLLQQFSNPANPEIHEKTTGPEIWEDTDGQVDVFIAGVGTGGTLTGVSRYIKGTKGKTDLISVAVEPTDSPVIAQALAGEEIKPGPHKIQGIGAGFIPANLDLKLVDKVIGITNEEAISTARRLMEEEGILAGISSGAAVAAALKLQEDESFTNKNIVVILPSSGERYLSTALFADLFTEKELQQ
notes: Carries the pyridoxal 5'-phosphate (PLP) cofactor; Dimer; source: E. coli BL21(DE3) or BL21(DE3) Tuner, pET21P vector, purified as previously described [50]

Key:
[1] = molecular target: B1; assay: other fluorescence titration; PLP fluorescence emission of CysK at 500 nm after excitation at 412 nm with increasing concentrations of CysE; 20 °C; stoichiometric titration, ratio of CysE to CysK; details: both partners purified
[2] = molecular target: the molecule itself; assay: SAXS; solution scattering at 10 °C; 20 mM sodium phosphate, 85 mM NaCl, 2 mM EDTA, 10 mM 2-MCE, pH 7.5; 0.5-1.5 mg/mL; CysK, CysE and CS (gel filtered and dialysed before) each measured; ab initio DAMMIF and SASREF rigid body models

| Binder | stoichiometry N [1] | stoichiometry N [2] |
| --- | --- | --- |
| serine acetyltransferase (CysE) from E. coli (enzyme, serine acetyltransferase (CysE), E. coli; Hexamer (dimer of trimers); source: E. coli BL21(DE3) or BL21(DE3) Tuner, pSH21p vector, purified, tag removed as previously described [50]) MSCEELEIVWNNIKAEARTLADCEPMLASFYHATLLKHENLGSALSYMLANKLSSPIMPAIAIREVVEEAYAADPEMIASAACDIQAVRTRDPAVDKYSTPLLYLKGFHALQAYRIGHWLWNQGRRALAIFLQNQVSVTFQVDIHPAAKIGRGIMLDHATGIVVGETAVIENDVSILQSVTLGGTGKSGGDRHPKIREGVMIGAGAKILGNIEVGRGAKIGAGSVVLQPVPPHTTAAGVPARIVGKPDSDKPSMDMDQHFNGINHTFEYGDGI | 1.7 | 6 |
| B1 |  | 2 |
